According to publication PMC12065904:

Molecular target: rabbit skeletal muscle actin, polymerized in vitro (F-actin) (rabbit) (UniProt P68135)
Assay: co-sedimentation; F-actin cosedimentation: CaVβ proteins incubated with polymerized actin in polymerization buffer (0.2 mM CaCl2, 50 mM KCl, 2 mM MgCl2, 1 mM ATP, 5 mM HEPES pH 8.0), 25 µM phalloidin; 150,000 × g, 20 min, 4 °C; densitometry of pellet over total; also at 30–150 mM NaCl and after 30 or 90 min of incubation

CaVβ4 R482X (truncated, naturally occurring variant of human CaVβ4 linked to juvenile myoclonic epilepsy) (from UniProt O00305-1 1-431) (domain or fragment)
percent cosedimented with actin: > 80%
